B1: Azoarcus group I ribozyme (parent)
chain: GUGCCUUGCGCCGGGAAACCACGCAAGGGAUGGUGUCAAAUUCGGCGAAACCUAAGCGCCCGCCCGGGCGUAUGGCAACGCCGAGCCAAGCUUCGGCGCCUGCGCCGAUGAAGGUGUAGAGACUAGACGGCACCCACCUAAGGCAAACGCUAUGGUGAAGGCAUAGUCCAGGGAGUGGCGAAAGUCACACAAACCGG

Variants of: B1
Assay: reverse-splicing fitness (ratio to wild type); higher = more active; in vitro selection; Mg2+ level not given
Procedure, shortened: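 An in vitro group I ribozyme library with randomized positions was T7-transcribed and gel-purified. In triplicate, 10 pmol RNA in EPPS pH 7.5 was reacted with 50 pmoles of a 30-nt RNA substrate for 1 h at 37 °C across several added MgCl2 levels (1–48 mM), then stopped with EDTA. Products were reverse transcribed from a substrate-complementary primer, PCR-amplified and sequenced (HiSeq 4000). Fitness is a variant's read proportion after selection over that before, normalised to wild type.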

Variant	reverse-splicing fitness
A111U A120C A145G C150U C169G U176C	0.0168
A111U A120C A145G C150U C169G U176G	0.00528
A111U A120C A145G C150U C169G U176A	0.0125
A111U A120C A145U C150G C169U U176A	0.0117
A111U A120C A145U C150G C169U U176C	0.0166
A111U A120C A145U C150G C169U U176G	0.00475
A111U A120C C169A U176G	0.00415
A111U A120C C169A U176A	0.0174
A111U A120C C169A U176C	0.017
A111U A120C C150U C169U	0.0972
A111U A120C C150U C169G	0.00855
A111U A120C C150U C169A	0.0121
A111U A120C A145G C150G C169G U176G	0.00555
A111U A120C A145G C150G C169G U176C	0.0106
A111U A120C A145G C150G C169G U176A	0.0094
A111U A120C A145G U176C	0.306
A111U A120C A145G U176G	0.0419
A111U A120C A145G U176A	0.246
A111U A120C C150A C169G	0.00847
A111U A120C C150A C169U	0.0239
A111U A120C C150A C169A	0.0105

Variant	reverse-splicing fitness
A111U A120C A145C C150U	0.17
A111U A120C A145C C150A	0.0343
A111U A120C A145C C150G	0.0767
A111G C150U	0.905
A111G C150G	0.363
A111G C150A	0.462
A111U A120C A145G C169A U176G	0.0041
A111U A120C A145G C169A U176A	0.019
A111U A120C A145G C169A U176C	0.0215
A111U A120C A145G C169G U176A	0.019
A111U A120C A145G C169G U176C	0.0229
A111U A120C A145G C169G U176G	0.00461
A111U A120C A145C C150U C169U U176A	0.0199
A111U A120C A145C C150U C169U U176G	0.0056
A111U A120C A145C C150U C169U U176C	0.0178
A111U A120C A145U C150U U176C	0.248
A111U A120C A145U C150U U176G	0.0333
A111U A120C A145U C150U U176A	0.194
A111U A120C A145U C150A C169U U176A	0.0185
A111U A120C A145U C150A C169U U176G	0.00493
A111U A120C A145U C150A C169U U176C	0.0187

Variant	reverse-splicing fitness
A111U A120C A145C C150U C169U	0.05
A111U A120C A145C C150U C169G	0.00744
A111U A120C A145C C150U C169A	0.00788
A111U A120C A145U C150U C169U U176A	0.0306
A111U A120C A145U C150U C169U U176G	0.0049
A111U A120C A145U C150U C169U U176C	0.0381
A111U A120C A145G C169A	0.0121
A111U A120C A145G C169G	0.0095
A111U A120C A145G C169U	0.172
A111U A120C A145G	0.569
A111U A120C A145C	0.537
A111U A120C A145U	0.596
A111U A120C U176C	0.28
A111U A120C U176A	0.277
A111U A120C U176G	0.0439
A111U A120C A145G C150A C169A	0.0121
A111U A120C A145G C150A C169G	0.00836
A111U A120C A145G C150A C169U	0.034
A111G C150A C169A U176C	0.0177
A111G C150A C169A U176A	0.0171
A111G C150A C169A U176G	0.00678

Variant	reverse-splicing fitness
A111G C150U U176G	0.271
A111G C150U U176A	0.686
A111G C150U U176C	0.646
A111U A120C C150A C169G U176G	0.00525
A111U A120C C150A C169G U176C	0.0197
A111U A120C C150A C169G U176A	0.0168
A111U A120C C150G C169A U176C	0.0104
A111U A120C C150G C169A U176G	0.00573
A111U A120C C150G C169A U176A	0.00901
A111U A120C A145U C150A	0.061
A111U A120C A145U C150U	0.401
A111U A120C A145U C150G	0.0712
A111U A120C A145U C169G	0.00837
A111U A120C A145U C169U	0.168
A111U A120C A145U C169A	0.0103
A111U A120C A145G C150U U176G	0.0319
A111U A120C A145G C150U U176C	0.25
A111U A120C A145G C150U U176A	0.176
A111U A120C A145C C169U U176C	0.0419
A111U A120C A145C C169U U176G	0.00517
